Source: the Human Domainome abundance scans (Beltran et al. 2025)
± gives the uncertainty stated by the source.

B1: RAS guanyl-releasing protein 1, residues 539 to 593; numbered along this chain, O95267 (parent)
chain: GFPHNFQETTYLKPTFCDNCAGFLWGVIKQGYRCKDCGMNCHKQCKDLVVFECKK

Variants of: B1
Test: abundance fitness (aPCA) (normalised: wild type 0, dead -1); higher = more abundant; growth selection in yeast, the domain comes from the species named
Details: Homo sapiens

Q: With GFPHNFQETTYLKPTFCDNCAGFLWGVIKQGYRCKDCGMNCHKQCKDLVVFECAK [K54A] as the variant, how does the abundance fitness read?
A: Its abundance fitness is -0.233 ± 0.1.

Q: For GFPHNFQETTYLKPTFCDNCAGFLWGVIKQGYRCKDCGMNCHKQCKDLVVRECKK [F51R], which abundance fitness is on record?
A: Its abundance fitness is -0.008 ± 0.047.

Q: For GFPHNFQETTYLKPDFCDNCAGFLWGVIKQGYRCKDCGMNCHKQCKDLVVFECKK [T15D], which abundance fitness is on record?
A: The abundance fitness was -0.622 ± 0.16.

Q: For GFPHNFQETTYLKPPFCDNCAGFLWGVIKQGYRCKDCGMNCHKQCKDLVVFECKK [T15P], which abundance fitness is on record?
A: The abundance fitness was -0.476 ± 0.071.

Q: For GFPHNFQETTYLKPCFCDNCAGFLWGVIKQGYRCKDCGMNCHKQCKDLVVFECKK [T15C], which abundance fitness is on record?
A: Its abundance fitness is -0.327 ± 0.2.

Q: With GFPHNFQETTYLKPLFCDNCAGFLWGVIKQGYRCKDCGMNCHKQCKDLVVFECKK [T15L] as the variant, how does the abundance fitness read?
A: The abundance fitness was -0.236 ± 0.083.

Q: With GFPHNFQETTYLKPWFCDNCAGFLWGVIKQGYRCKDCGMNCHKQCKDLVVFECKK [T15W] as the variant, how does the abundance fitness read?
A: The abundance fitness was -0.444 ± 0.12.

Q: For GFPHNFQETTYLKPTFCDNCAGFLWGVIKQGYRCKDCGMNCHKQCKDLVVFECKD [K55D], which abundance fitness is on record?
A: Its abundance fitness is -0.528 ± 0.24.

Q: Which abundance fitness does the source give for GFPHNFQETTYLKPTFCDNCAGFLWGVIKKGYRCKDCGMNCHKQCKDLVVFECKK [Q30K] here?
A: Its abundance fitness is -0.599 ± 0.3.

Q: With GFPHNFQETTYLKRTFCDNCAGFLWGVIKQGYRCKDCGMNCHKQCKDLVVFECKK [P14R] as the variant, how does the abundance fitness read?
A: The abundance fitness was -0.739 ± 0.065.

Q: Which abundance fitness does the source give for GFPHNFQETTYLKKTFCDNCAGFLWGVIKQGYRCKDCGMNCHKQCKDLVVFECKK [P14K] here?
A: The abundance fitness was -0.672 ± 0.17.

Q: With GFPHNFQETTYLKPTFCDNCAGFLWGVIKQGYRCKDCGMNCHKQCKDLVVFELKK [C53L] as the variant, how does the abundance fitness read?
A: Its abundance fitness is 0.021 ± 0.085.

Q: For GFPHNFQETTYLKPTFCDNCAGFLWGVIKQGYRCKDCGMNCHKQCKDLVVFEFKK [C53F], which abundance fitness is on record?
A: Its abundance fitness is -0.32 ± 0.16.

Q: Which abundance fitness does the source give for GFPHNFQETTYLKPTFCDNCAGFLWGVIKQGYRCKDCGMNCHKQCKDLVVFEHKK [C53H] here?
A: The abundance fitness was -0.009 ± 0.2.

Q: With GFPHNFQETTYLKPTFCDNCAGFLWGVIKQGYRCKDCGMNCHKQCKDLVVFEEKK [C53E] as the variant, how does the abundance fitness read?
A: Its abundance fitness is -0.209 ± 0.11.

Q: With GFPHNFQETTYLKPTFCDNCAGFLWGVIKQGYRCKDCGMNCHKQCKDLVVFEMKK [C53M] as the variant, how does the abundance fitness read?
A: Its abundance fitness is -0.095 ± 0.051.

Q: With GFPHNFQETTYLKPTFCDNCAGFLWGVIKQGYMCKDCGMNCHKQCKDLVVFECKK [R33M] as the variant, how does the abundance fitness read?
A: The abundance fitness was 0.069 ± 0.083.

Q: Which abundance fitness does the source give for GFPHNFQETTYLKPTFCDNCAGFLWGVIKQGYCCKDCGMNCHKQCKDLVVFECKK [R33C] here?
A: Its abundance fitness is 0.122 ± 0.13.

Q: With GFPHNFQETSYLKPTFCDNCAGFLWGVIKQGYRCKDCGMNCHKQCKDLVVFECKK [T10S] as the variant, how does the abundance fitness read?
A: The abundance fitness was -0.092 ± 0.046.

Q: With GFPHNFQETMYLKPTFCDNCAGFLWGVIKQGYRCKDCGMNCHKQCKDLVVFECKK [T10M] as the variant, how does the abundance fitness read?
A: Its abundance fitness is -0.682 ± 0.24.

Q: With GFPHNFQETWYLKPTFCDNCAGFLWGVIKQGYRCKDCGMNCHKQCKDLVVFECKK [T10W] as the variant, how does the abundance fitness read?
A: Its abundance fitness is -0.073 ± 0.071.

Q: Which abundance fitness does the source give for GFPHNFQETTYLKPTFCDNCAGFLWGVIKQGYRCKDCGMNCHKQCRDLVVFECKK [K46R] here?
A: The abundance fitness was -0.01 ± 0.066.

Q: With GFPHNFQETTYLKPTFCDNCAGFLWGVIKQGYRCKDCGMNCHKQCHDLVVFECKK [K46H] as the variant, how does the abundance fitness read?
A: Its abundance fitness is 0.096 ± 0.14.

Q: With GFPHNFQETTYLKPTFCDNCAGFLWGVIKQGYRCKDCGMNCHKQCDDLVVFECKK [K46D] as the variant, how does the abundance fitness read?
A: Its abundance fitness is -0.541 ± 0.35.

Q: Which abundance fitness does the source give for GFPHNFQETTYLKPTFCDNCAGFLWGVIKQGYRCKDCGMNCHKQCLDLVVFECKK [K46L] here?
A: The abundance fitness was -0.007 ± 0.077.

Q: For GFPQNFQETTYLKPTFCDNCAGFLWGVIKQGYRCKDCGMNCHKQCKDLVVFECKK [H4Q], which abundance fitness is on record?
A: The abundance fitness was -0.804 ± 0.16.

Q: Which abundance fitness does the source give for GFPHNFQETTYLKPTFCDNCAGFLWGVIKQGYRCKDCGMNCIKQCKDLVVFECKK [H42I] here?
A: Its abundance fitness is -0.939 ± 0.16.

Q: Which abundance fitness does the source give for GFPHNFQETTYLKPTFCDNCAGFLWGVIKQGYRCKDCIMNCHKQCKDLVVFECKK [G38I] here?
A: The abundance fitness was -0.453 ± 0.17.

Q: For GFPHNFQYTTYLKPTFCDNCAGFLWGVIKQGYRCKDCGMNCHKQCKDLVVFECKK [E8Y], which abundance fitness is on record?
A: The abundance fitness was -0.105 ± 0.16.

Q: Which abundance fitness does the source give for GFPHNFQFTTYLKPTFCDNCAGFLWGVIKQGYRCKDCGMNCHKQCKDLVVFECKK [E8F] here?
A: The abundance fitness was -0.096 ± 0.13.

Q: For GFPHNFQETTYLKPTFCDNCAGFLWVVIKQGYRCKDCGMNCHKQCKDLVVFECKK [G26V], which abundance fitness is on record?
A: Its abundance fitness is -0.736 ± 0.12.

Q: With GFPHNFQETTYLKPTFCDNCAGFLWNVIKQGYRCKDCGMNCHKQCKDLVVFECKK [G26N] as the variant, how does the abundance fitness read?
A: The abundance fitness was -0.562 ± 0.16.

Q: With GFPHNFQETTYLKPTFCDNCAGFLWGVIKQGYRCKDKGMNCHKQCKDLVVFECKK [C37K] as the variant, how does the abundance fitness read?
A: Its abundance fitness is -0.933 ± 0.32.

Q: For GFPHNFQETTYLKPTFCDNCAGFLWGVIKQGYRCKDMGMNCHKQCKDLVVFECKK [C37M], which abundance fitness is on record?
A: The abundance fitness was -0.904 ± 0.24.

Q: Which abundance fitness does the source give for GFPHNFQETTYLKPTFCDNCAGFLWGVIKQGYRCKDRGMNCHKQCKDLVVFECKK [C37R] here?
A: Its abundance fitness is -0.879 ± 0.077.

Q: For GFPHNFQETTYLKPTFCDNCAGFLWGVIKQGYRCKDYGMNCHKQCKDLVVFECKK [C37Y], which abundance fitness is on record?
A: Its abundance fitness is -0.708 ± 0.29.

Q: Which abundance fitness does the source give for GFPHNFQETTYLKPTFCDNCASFLWGVIKQGYRCKDCGMNCHKQCKDLVVFECKK [G22S] here?
A: The abundance fitness was -0.066 ± 0.057.

Q: Which abundance fitness does the source give for GFPHNFQETTYLKPTFCDNCARFLWGVIKQGYRCKDCGMNCHKQCKDLVVFECKK [G22R] here?
A: Its abundance fitness is -0.082 ± 0.047.

Q: Which abundance fitness does the source give for GFPHNFQETTYLKPTFCDNCAIFLWGVIKQGYRCKDCGMNCHKQCKDLVVFECKK [G22I] here?
A: The abundance fitness was -0.154 ± 0.13.

Q: Which abundance fitness does the source give for GFPHNFQETTYLKPTFCDNCAGFLWGYIKQGYRCKDCGMNCHKQCKDLVVFECKK [V27Y] here?
A: Its abundance fitness is -0.018 ± 0.072.

Q: Which abundance fitness does the source give for GFPHNFQETTYLKPTFCDNCAGFLWGVIKQGYRCKDCGMNCHKQAKDLVVFECKK [C45A] here?
A: Its abundance fitness is -0.527 ± 0.086.

Q: Which abundance fitness does the source give for GFPHNFQETTYLKPTFCDNCAGFLWGVIKQGYRCKDCGMNCHKQRKDLVVFECKK [C45R] here?
A: Its abundance fitness is -0.773 ± 0.083.

Q: With GFPHNFQETTYLKPTFCDNCAGFLWGVRKQGYRCKDCGMNCHKQCKDLVVFECKK [I28R] as the variant, how does the abundance fitness read?
A: The abundance fitness was -0.084 ± 0.077.

Q: Which abundance fitness does the source give for GFPHNFQETTYLKPTFCDNCAGFLWGVHKQGYRCKDCGMNCHKQCKDLVVFECKK [I28H] here?
A: The abundance fitness was -0.209 ± 0.13.

Q: For GFPHFFQETTYLKPTFCDNCAGFLWGVIKQGYRCKDCGMNCHKQCKDLVVFECKK [N5F], which abundance fitness is on record?
A: Its abundance fitness is -0.226 ± 0.19.

Q: For GFPHRFQETTYLKPTFCDNCAGFLWGVIKQGYRCKDCGMNCHKQCKDLVVFECKK [N5R], which abundance fitness is on record?
A: The abundance fitness was -0.169 ± 0.077.

Q: With GFPHVFQETTYLKPTFCDNCAGFLWGVIKQGYRCKDCGMNCHKQCKDLVVFECKK [N5V] as the variant, how does the abundance fitness read?
A: Its abundance fitness is -0.218 ± 0.079.

Q: With GFPHNFQETTYLKPTFCDNCAGFLWGVIKQGYRCKDCGMNEHKQCKDLVVFECKK [C41E] as the variant, how does the abundance fitness read?
A: The abundance fitness was -0.414 ± 0.11.
